Consider one protein from PMC11574312, “The role of ATP-binding Cassette subfamily B member 6 in the inner ear” (Nature Communications, 2024).

This series concerns the molecule itself. In words: cryo-EM structure; ABCB6 WT purified in DDM/CHS, about 3.6 mg/mL on grids; apo, inward-facing; final refinement with C2 symmetry applied.

B1: human ATP-binding cassette sub-family B member 6 (ABCB6) WT-Flag (natural protein)
chain: MVTVGNYCEAEGPVGPAWMQDGLSPCFFFTLVPSTRMALGTLALVLALPCRRRERPAGADSLSWGAGPRISPYVLQLLLATLQAALPLAGLAGRVGTARGAPLPSYLLLASVLESLAGACGLWLLVVERSQARQRLAMGIWIKFRHSPGLLLLWTVAFAAENLALVSWNSPQWWWARADLGQQVQFSLWVLRYVVSGGLFVLGLWAPGLRPQSYTLQVHEEDQDVERSQVRSAAQQSTWRDFGRKLRLLSGYLWPRGSPALQLVVLICLGLMGLERALNVLVPIFYRNIVNLLTEKAPWNSLAWTVTSYVFLKFLQGGGTGSTGFVSNLRTFLWIRVQQFTSRRVELLIFSHLHELSLRWHLGRRTGEVLRIADRGTSSVTGLLSYLVFNVIPTLADIIIGIIYFSMFFNAWFGLIVFLCMSLYLTLTIVVTEWRTKFRRAMNTQENATRARAVDSLLNFETVKYYNAESYEVERYREAIIKYQGLEWKSSASLVLLNQTQNLVIGLGLLAGSLLCAYFVTEQKLQVGDYVLFGTYIIQLYMPLNWFGTYYRMIQTNFIDMENMFDLLKEETEVKDLPGAGPLRFQKGRIEFENVHFSYADGRETLQDVSFTVMPGQTLALVGPSGAGKSTILRLLFRFYDISSGCIRIDGQDISQVTQASLRSHIGVVPQDTVLFNDTIADNIRYGRVTAGNDEVEAAAQAAGIHDAIMAFPEGYRTQVGERGLKLSGGEKQRVAIARTILKAPGIILLDEATSALDTSNERAIQASLAKVCANRTTIVVAHRLSTVVNADQILVIKDGCIVERGRHEALLSRGGVYADMWQLQQGQEETSEDTKPQTMER
notes: ABCB6, human, UniProt Q9NP58; the preparation holds the N-terminal TMD0, but the final model has no density for it; The protein was eluted from Flag resin with 3X Flag peptide and no tag cleavage is described
B1: the binding result is on record as “binds”.
